Results taken from publication PMC7335780, “Role of folding kinetics of secondary structures in telomeric G-overhangs in the regulation of telomere maintenance in Saccharomyces cerevisiae”.

Tests used:
Cdc13-DBD [1] = target: T1, Cdc13-DBD (Saccharomyces cerevisiae (strain SCY325), UniProt P32797 497-694); experiment: competition; competitor in water, 50 or 75 nM, vs 32P-ONG11; EMSA: 1x K+ buffer (20 mM potassium phosphate pH 7.0, 135 mM KCl, 9% glycerol), 10 min at 22 C/RT, 6% PAGE in 0.5x TBE; NMR in K+TD (K+ buffer + 0.25% Triton X-100, 1 mM DTT); conditions: protein: recombinant, tags: GST tag (pGEX-6T-2) removed with HRV 3C protease, vector-derived residues may remain, unfolded single strand
T1 sequence: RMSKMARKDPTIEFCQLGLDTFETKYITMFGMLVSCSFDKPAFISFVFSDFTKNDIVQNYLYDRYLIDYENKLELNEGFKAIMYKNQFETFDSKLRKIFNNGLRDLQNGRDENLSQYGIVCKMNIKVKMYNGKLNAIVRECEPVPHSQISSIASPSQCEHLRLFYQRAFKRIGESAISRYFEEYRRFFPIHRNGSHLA

Cdc13-DBD [2] = target: T1, Cdc13-DBD; experiment: EMSA; freshly boiled probe, protein titration; EMSA: 1x K+ buffer (20 mM potassium phosphate pH 7.0, 135 mM KCl, 9% glycerol), 10 min at 22 C/RT, 6% PAGE in 0.5x TBE; NMR in K+TD (K+ buffer + 0.25% Triton X-100, 1 mM DTT); conditions: protein: recombinant; tags: GST tag (pGEX-6T-2) removed with HRV 3C protease; vector-derived residues may remain; label: 5'-32P; single strand when freshly boiled; G-hairpin after long folding

GTGTGGGTGTG (ssDNA) [ONG11 unfolded (H2O or freshly boiled)]
binding result (Cdc13-DBD [1]): binds

GTGTGGGTGTGGTGTGGGTGTGGTGTGGGTGTG (ssDNA) [ONG1 unfolded (H2O)]
binding result (Cdc13-DBD [1]; label: none): binds

GTGTGGGTGTG (ssDNA, 5' phosphate) [ONG11 5'-32P probe]
binding result (Cdc13-DBD [2]): binds
